In a protein production outcome set (Wang et al. 2014):

assay: label from the status in PepcDB records

Row | Sequence | protein production
1 | MGSKNESTASKASGTASEKKKIEYLDKTYEVTVPTDKIAITGSVESMEDAKLLDVHPQGAISFSGKFPDMFKDITDKAEPTGEKMEPNIEKILEMKPDVILASTKFPEKTLQKISTAGTTIPVSHISSNWKENMMLLAQLTGKEKKAKKIIADYEQDLKEIKTKINDKAKDSKALVIRIRQGNIYIYPEQVYFNSTLYGDLGLKAPNEVKAAKAQELSSLEKLSEMNPDHIFVQFSDDENADKPDALKDLEKNPIWKSLKAVKEDHVYVNSVDPLAQGGTAWSKVRFLKAAAEKLTQNLEHHHHHH | not failed
2 | MGSPKVEDTLISDAQIEEAKQDGTTTAVYVIARNSGEFADRLDAEGDYQLWSNEEENLKKVVANFDNVIVVLNVGGIIDTKFFHEIEGLDSLLLMSQAGMRGGDAVVKVLNGEVTPSGKLTDTWAVNYEDYSSSETFGKNDVNTTQEDYTDDIYVGYRYFDTFNVTPAYEFGYGLSYTDFNIDVKDVTVDEENVTVDVKVTNVGKQYSGKEVVEVYFSAPDGALEKPYQELATYGKTDTLAPGESQTLTLSYATTEMSAYSEDLAAYVMEDGDYLVRVGNSSRNTSVEAVINLDSNKVTEQLSNQMVQDEEIDTLSNEGATPYTYEGEAEEIAKAERFELDANAIETVNNASEYDDESVISYVYEGSDYTVVDQEANPRYTKAPSGNNTTPSQLIEPYEETIQYVEKTKENPTLLDVYQGTVTMEELLASLSVEEMSNIVEGLGWGGGSEPIIGAQANSVKGAAGETTSKYYETRAIPNTVLADGPAGIRITQSYEEDGTTYYQYCTAFPIGTLIAQSWDKDVAKQFGEAIGEEMLEMGVTMWLAPGMNIHRNPLCGRNFEYYSEDPLVAGVTAASTTLGVQSHEGIGVTLKHYAANNQEDNRNAVNNTITERALREIYLKGFEIAVKTANPMALMTCYNLNNAMPGADDYDLCTDIPRGEWGFNGLIMTDWGGGQSTPVNSMHAGNDLIMPGGSSKSIAEATGVTLPLGDLQKATRNVLNVIMDSTQFKKIGVENGVEVEIGKFTESAGLGLFLDVTKSEVTSVNKTALQIAVDVASNIADEELENVVPAVANELKAALEEAKAILEDATAEQETVDASFDRLATAIQMLDFIKGDKAALRSFITKVENTVEEEYTPATWTAFAAALGTGNTVLANENAMQEEVDNAYTNLVKAYLNLRLVPNKDKLEDLINQTKALVAANYTADTWKNVSDALVLAENVMSNENATSEEVANAETVLTKAVEGLVVNNTPVTPSTPAVDNTVDSTVKTPVNSGDTTASVKTGDESLTGLFGGITLLSLAGAVLLKRKEN | failed
3 | MGSSHHHHHHSSGLVPRGSHDSAQSDLKEVMVLNATESFVYEPKEQKKMFHATVATENEVFRVKVFNIDLKEKFTPKKIIAIANYVCRNGFLEVYPFTLVADVNADRNMEIPKGLIRSASVTPKINQLCSQTKGSFVNGVFEVHKKNVRGEFTYYEIQDNTGKMEVVVHGRLTTINCEEGDKLKLTCFELAPKSGNTGELRSVIHSHIKVIKTRK | not failed
4 | MGSSHHHHHHSSGLVPRGSHMGKEYFLKVALREAKRAFEKGEVPVGAIIVKEGEIISKAHNSVEELKDPTAHAEMLAIKEACRRLNTKYLEGCELYVTLEPCIMCSYALVLSRIEKVIFSALDKKHGGVVSVFNILDEPTLNHRVKWEYYPLEEASELLSEFFKKLRNNII | not failed
5 | MGSSHHHHHHSSGRENLYFQGMKEVEKNEIKRLSDRLDAIRHQQADLSLVEAADKYAELEKEKATLEAEIARLREVHSQKLSKEAQKLMKMPFQRAITKKEQADMGKLKKSVRGLVVVHPMTALGREMGLEEMTGFSKTTF | not failed
6 | MGSTFFGRPNVVGSSPPSSSPTSSSSSPATRRGKKNGSEKPKQPQRGLGVAQLEKIRLHGEMSCNSFNSYNPSLYPQVTYTNTSLHNRDSDPKASKLIKTRYICV | failed
7 | MGSVLVDLQIATENIEGLPTEEQIVQWATGAVQPEGNEVEMTVRIVDEAESHELNLTYRGKDRPTNVLSFPFECPDEVELPLLGDLVICRQVVEREASEQEKPLMAHWAHMVVHGSLHLLGYDHIEDDEAEEMESLETQIMQGLGFDDPYLAEK | not failed
8 | MGSYQLLVPPPEALSKPLSVPTRLLLGPGPSNLAPRVLAAGSLRMIGHMQKEMLQIMEEIKQGIQYVFQTRNPLTLVVSGSGHCAMETALFNLLEPGDSFLTGTNGIWGMRAAEIADRIGARVHQMIKKPGEHYTLQEVEEGLAQHKPVLLFLVHGESSTGVVQPLDGFGELCHRYQCLLLVDSVASLGGVPIYMDQQGIDIMYSSSQKVLNAPPGISLISFNDKAKYKVYSRKTKPVSFYTDITYLAKLWGCEGETRVIHHTTPVTSLYCLRESLALIAEQGLENCWRRHREATAHLHKHLQEMGLKFFVKDPEIRLPTITTVTVPAGYNWRDIVSYVLDHFSIEISGGLGPTEERVLRIGLLGYNATTENVDRVAEALREALQHCPKNKL | not failed
9 | MGTGGITSNAHVVSPTWHHKHVPPMDDDSVLQRDIGELLSRWGGLQMAVKNQWGGHDSLKKSQELAHNLFHLISQSNGSIFFLLL | failed
10 | MGTKVSDMQKNVTPGRRKGCPNYPPEFKQQLVAASCEPGISISKLALENGINANLLFKWRQQWREGKLLLPSSESPQLLPVTLDAAAEQPESLAEDPETLSISCEVTFRHGTLRFNGNVSEKLLTLLIQELKR | failed
11 | MGTLWWNGTFFTMVHEGDQVEAVFTEDGKIVAIGTAEELRQRYSTRINQEMNCDGAYVYPLEHHHHHH | not failed
12 | MGTVHARSLDPLPMNGPDFGSPDDADLVEVEPQKKQEILENKDVVVQRVHFEGLGRTKDDLVAHEIGQVFKAKNLIEVMRKSHEAREKLLRLGVFRNVEVLIDTCEGEDAVPNGLDVTFEVTELRRVTGSYNTMVGNNEGSMVLGLKLPNLFGRAEKMTFQFSYGTKETSYGLSFFKPQVGNFERNFSVNLYKVTGQFPWSSLRETDRGVSAEINFPIWKTSHTLKWEGVWRELGCLARTASFTIREESGHTLKSSLSHSMVIDSRNASILPKSGALLKINQELAGYTGGDVSFLKEDFELQLNRQLTWDSVLSTSLWGGMLVPIGDRPSSIADRFYLGGPTSVRGFSMYSIGPQSEGDYLGGEAYWAGGVHLYTPLPFRPGRGGFGDLFRTHFFLNAGNLCNLNYGEGPGAHLRRLAECIRWSYGAGLVLRLGNIARLELNYCIPMGVQSGDRICDGVQFGAGIRFL | failed
13 | MGTVSKALTLLTYFNHGRLEIGLSDLTRLSGMNKATVYRLMSELQEAGFVEQVEGARSYRLGPQVLRLAALREASVPILSASRRVLRELSEDTGETTHLSLLQGEQLASLSHAYSSRNATKVMMEDAEVLTFHGTASGLAVLAYSEPSFVDAVLAAPLTARTPQTQTDPAAIRAEIAEVRRTGLAQSIGGFEAEVHSHAVPIFGPDRAVLGALAVAAPTSRMTPDQKRTIPPALRAAGLSLTERIGGACPPEFPTDIAA | not failed
14 | MGVLDIVKAGVISGDELNKIYDYAKAEGFAIPAVNVVGTDSINAVLEAAKKVNSPVIIQFSNGGAKFYAGKNCPNGEVLGAISGAKHVHLLAKAYGVPVILHTDHAARKLLPWIDGLIEANAQYKKTHGQALFSSHMLDLSEESLEENLSTCEVYLQKLDALGVALEIELGCTGGEEDGVDNTGIDNSKLYTQPEDVALAYERLGKISDKFSIAASFGNVHGVYKPGNVSLQPEILKNSQKFVKDKFALNSDKPINFVFHGGSGSELKDIKNAVSYGVIKMNIDTDTQWAFWDGVREYELKNRAYLQGQIGNPEGDDKPNKKYYDPRVWLRSGEESMIKRLEIAFEDLNCINKN | not failed
15 | MGVNMEVCVVKPTSVDDSREITETLLAGRTVILNLEGMDLEIAQRIIDFISGATFAISGNLQKISNYIFLVTPTNVDILEHHHHHH | failed
16 | MGVSEISRSEEKSGIGFVKLFENNVVFPGFLVWMNQTIQEPLKAEFKRLRNVKELSLKSVSKIETAYEEHRDEEKLEKQLQAWRDNPSWIDQPPKVVVKSQNGLFCHLNIEADVGLPPELVYNIFTHPDNKRYFKNIKENISRKVLIDEGPKQTVEVKQAAAWKFLWWDGTCPIHLIVEENRKNLTSKYKQETTMFMKVFEGCWKVEPLFIDEHLCDRSKPKSQKDYHSCSNGRGRIGSKVTMDQMFQPSALLTPPPLSWYIRGITIKTTESMIEDLFAEATRLRGGKGGGYIDDQGENNVVTEKSKADDIKERWRSHRRSKRRRFTTARSM | failed
